Data reported in the supplement of paper PMC9170038.

Tested on: MS2 coat protein
Assay: apparent KD of MS2 coat protein; designed switch direction (-1 OFF switch, 1 ON switch): -1; higher = weaker reporter binding
Method in brief: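 The apparent KD reported per design is the median over clusters of curve fits to normalised cluster fluorescence. The RNA switches were transcribed on Illumina chips by stalled E. coli RNA polymerase. SNAP-549-labelled MS2 coat protein was titrated from 0.7 or 1.5 nM, doubling up to 3 µM, in Tris-HCl pH 7.5 buffer containing KCl, MgCl2, BSA, DTT, tRNA and Tween-20, with no input, 200 uM small-molecule ligand, or an oligonucleotide input.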

[1] = Eterna round: R95, input ligand: FMN 200 uM
[2] = Eterna round: R95, input ligand: microRNA oligo, concentration not stated
[3] = Eterna round: R95, input ligand: none
[4] = input ligand: microRNA oligo, concentration not stated

GAUUAACAUGAGGAUCACCCAUGUGAGGAUAUGAACUUGCCCACUUACCAGAUAAAGUUUAGAAGGCGCAUUCU [1986#35] (Eterna round: R97, puzzle: Exclusion 1)
apparent KD of MS2 coat protein (input ligand: FMN 200 uM): 47.3 nM
apparent KD of MS2 coat protein (input ligand: none): 30.4 nM

GAUUAGACUAAGGAUAUUACGAGCUCUGUGCCGUGAGAAGGUAGCACAUGAGGAUCACCCAUGUGACCAUCAUG [Eternabot (L2) Solution 81] (Eterna round: R97, puzzle: Exclusion 6)
apparent KD of MS2 coat protein (input ligand: FMN 200 uM): 180 nM
apparent KD of MS2 coat protein (input ligand: none): 58.6 nM

GAUUAUGCGAGCUUUAGGGACAUGAGGAUCACCCAUGUUCGUCUUAUUAGUCUAGGUACACUGACAUACCUAAAUCU [JMF 67] (puzzle: Sensor v3, turn-off variant 1)
apparent KD of MS2 coat protein [1]: 22.7 nM
apparent KD of MS2 coat protein [2]: 33.1 nM
apparent KD of MS2 coat protein [3]: 23.6 nM

GCAAGCUUUUGCUCGGCUUACAUGAGGAUCACCCAUGUGGGCCCGGGCCCGGGCCCGCCGGGCCCGGGCCCGGGCCC [-58.5, -80.7, A 10%] (Eterna round: R97, puzzle: Sensor, turn-off variant 1)
apparent KD of MS2 coat protein (input ligand: FMN 200 uM): 24.4 nM
apparent KD of MS2 coat protein (input ligand: none): 25.4 nM

GCAAGCUUUUGCUCGUCUUACAUGAGGAUCACCCAUGUCGGGUGAUUGCUUCGUGCCCGGGCCCGCCGGGCCCGGGC [-41.5, -70.8 kcal, A 12%] (Eterna round: R97, puzzle: Sensor, turn-off variant 1)
apparent KD of MS2 coat protein (input ligand: FMN 200 uM): 76.9 nM
apparent KD of MS2 coat protein (input ligand: none): 97.8 nM

GCACGAAGUGUAGGAUAUCUGUGCGAUUAGCUCAGAGAAGGACACAUGAGGAUCACCCAUGUGUUCCAAUACCCAAAUACGUGC [Eli exng1 - 061] (Eterna round: R96, puzzle: Exclusion NG 1)
apparent KD of MS2 coat protein (input ligand: FMN 200 uM): 11 nM
apparent KD of MS2 coat protein [4]: 7.69 nM
apparent KD of MS2 coat protein (input ligand: none): 11.3 nM

GCACGACAUCAGGAUAUGACUAGCUGCGGCUAGUCAGAAGGGAUGACAUGAGGAUCACCCAUGUGAUCACGUGC [E6/2-B3] (Eterna round: R97, puzzle: Exclusion 6)
apparent KD of MS2 coat protein (input ligand: FMN 200 uM): 114 nM
apparent KD of MS2 coat protein (input ligand: none): 85.3 nM

GCACGGAGUGUAGGAUAUCUGUGCGAUUAGCUCAGAGAAGGACACAUGAGGAUCACCCAUGUGUUCCACGGAAACGAACCGUGC [Eli exng1 - 052] (Eterna round: R96, puzzle: Exclusion NG 1)
apparent KD of MS2 coat protein (input ligand: FMN 200 uM): 11.8 nM
apparent KD of MS2 coat protein [4]: 10.2 nM
apparent KD of MS2 coat protein (input ligand: none): 13.4 nM

GCACGGAUGGUAGGAUAUCUGUGCGAUUAGCUCAGAGAAGGACCACAUGAGGAUCACCCAUGUACCUCAAUUAGCUUUCCGUGC [Eli exng1 - 020] (Eterna round: R96, puzzle: Exclusion NG 1)
apparent KD of MS2 coat protein (input ligand: FMN 200 uM): 40.7 nM
apparent KD of MS2 coat protein [4]: 11 nM
apparent KD of MS2 coat protein (input ligand: none): 15.2 nM

GCACGGUUGGUAGGAUAUCCUUGCGAUUAGCAAGGAGAAGGACCACAUGAGGAUCACCCAUGUACCUCAAUAAUCCUUCCGUGC [Eli exng1 - 027] (Eterna round: R96, puzzle: Exclusion NG 1)
apparent KD of MS2 coat protein (input ligand: FMN 200 uM): 12.8 nM
apparent KD of MS2 coat protein [4]: 12.1 nM
apparent KD of MS2 coat protein (input ligand: none): 14.7 nM

GCACUGACAGGAUAUACAUGAGGAUCACCCAUGUGACCCUUAAAGUACUCGCGUACAAGUAGAAGGGUCUGUGC [Omei Ex3 Model Bachelor's Dilema v30] (Eterna round: R97, puzzle: Exclusion 3)
apparent KD of MS2 coat protein (input ligand: FMN 200 uM): 398 nM
apparent KD of MS2 coat protein (input ligand: none): 66.7 nM

GCAGCAACUCUAAUCAAUCAAACAUGAGGAUCACCCAUGUCUCAGGAUAUGGUCUGGAUUACAGGCCAGAAGGGAGAAAGCUGC [Eli exng3 - 045] (Eterna round: R96, puzzle: Exclusion NG 3)
apparent KD of MS2 coat protein (input ligand: FMN 200 uM): 14.3 nM
apparent KD of MS2 coat protein [4]: 11.1 nM
apparent KD of MS2 coat protein (input ligand: none): 16.1 nM

GCAGCAUAGAUAACAGUCUGAUACAUGAGGAUCACCCAUGUACAGGAUAUGGUCUGGAUUACAGGCCAGAAGGGUACAAGCUGC [Eli exng3 - 014] (Eterna round: R96, puzzle: Exclusion NG 3)
apparent KD of MS2 coat protein (input ligand: FMN 200 uM): 10.9 nM
apparent KD of MS2 coat protein [4]: 9.69 nM
apparent KD of MS2 coat protein (input ligand: none): 12.7 nM

GCAGCUAACACAGAUAUGUGGACAUGAGGAUCACCCAUGUCACAGGAUAUGGACUGGAUUACAGUCCAGAAGGGUGAAUGCUGC [Zipper Style 5] (Eterna round: R96, puzzle: Exclusion NG 3)
apparent KD of MS2 coat protein (input ligand: FMN 200 uM): 8.25 nM
apparent KD of MS2 coat protein [4]: 10.8 nM
apparent KD of MS2 coat protein (input ligand: none): 14.2 nM

GCAGGAUAAGUCAGGAUAUACCUAUGGAUACAUAGGUAGAAGGGACAUGAGGAUCACCCAUGUGCCUCGCCUGC [Fiskers BMX 4 - 72] (puzzle: Brourd's mod of Exclusion 4)
apparent KD of MS2 coat protein [2]: 12.4 nM

GCAGGAUAAGUUAGGAUAUACCUAUGGAUACAUAGGUAGAAGGGACAUGAGGAUCACCCAUGUGACUCACCUGC [Fiskers BMX 4 - 63] (puzzle: Brourd's mod of Exclusion 4)
apparent KD of MS2 coat protein [1]: 33.5 nM
apparent KD of MS2 coat protein [2]: 18.4 nM
apparent KD of MS2 coat protein [3]: 22.4 nM

GCAUCCAGUGUGAGGAUAUACCUCUGGAUACAUAGGUAGAAGGCACAUGAGGAUCACCCAUGUCCUAAGGAUGC [Fiskers BMX 4 - 29] (puzzle: Brourd's mod of Exclusion 4)
apparent KD of MS2 coat protein [1]: 104 nM
apparent KD of MS2 coat protein [2]: 47.5 nM
apparent KD of MS2 coat protein [3]: 75.5 nM

GCAUGCGACUGAGGAUAUGUAGUGACCUCAGUCGAGACAUGAGGAUCACCCAUGUACAGCACGUGACAGAAGGCAGCACAUGAU [Eternabot solution 14] (Eterna round: R96, puzzle: Exclusion NG 2)
apparent KD of MS2 coat protein (input ligand: FMN 200 uM): 63.2 nM
apparent KD of MS2 coat protein [4]: 38.5 nM
apparent KD of MS2 coat protein (input ligand: none): 53.7 nM

GCAUGGCGAGGAUAUACAUGAGGAUCACCCAUGUGAGAAUAAUAAGUGAGGAAGAAAAGUAGAAGGCGCUGUGG [Mat - Exclusion 3 - Mod of Salish D64] (puzzle: Exclusion 3)
apparent KD of MS2 coat protein [1]: 250 nM
apparent KD of MS2 coat protein [2]: 70.1 nM
apparent KD of MS2 coat protein [3]: 97.8 nM

GCAUGGGCCGUCAGGAUAUAGGCGCCGUGAAGGUAUUAGAAGGGACAUGAGGAUCACCCAUGUAUGAGAAAAGA [Edtioresor] (puzzle: Brourd's mod of Exclusion 4)
apparent KD of MS2 coat protein [2]: 33.7 nM

GCAUGUUGGUAGGAUAUGCAGCGGAAACCGCUAGUAGAAGGAUUGACAUGAGGAUCACCCAUGUGAACCGAAGG [Arcelace] (Eterna round: R97, puzzle: Exclusion 6)
apparent KD of MS2 coat protein (input ligand: FMN 200 uM): 186 nM
apparent KD of MS2 coat protein (input ligand: none): 40.4 nM

GCCAGAGCAGGAUAUUCAAUAAUUCACAUGAGGAUCACCCAUGUCGAGCGAAAGCUCGAGGGAGAAGGGCUCUGGC [Fiskers Ex 5 - 6] (puzzle: Exclusion 5)
apparent KD of MS2 coat protein [1]: 14.3 nM
apparent KD of MS2 coat protein [2]: 34.8 nM
apparent KD of MS2 coat protein [3]: 39.4 nM

GCCGAAAAAGUGAGGAUAUACCUAUGGAUACAUAGGUAGAAGGCACAUGAGGAUCACCCAUGUGUCCUAACGGC [Eli bmx4 4.29] (Eterna round: R97, puzzle: Brourd's mod of Exclusion 4)
apparent KD of MS2 coat protein (input ligand: FMN 200 uM): 18 nM
apparent KD of MS2 coat protein (input ligand: none): 15.2 nM

GCCGAAAGCGUAGGAUAUUGAAUAAAGCGGAAACGCAAGACAUGAGGAUCACCCAUGUGUCCGGACGAGAAGGGCGAAAGCGGC [AK ExNG2-V2-2] (Eterna round: R96, puzzle: Exclusion NG 2)
apparent KD of MS2 coat protein (input ligand: FMN 200 uM): 33.6 nM
apparent KD of MS2 coat protein [4]: 24.1 nM
apparent KD of MS2 coat protein (input ligand: none): 35.3 nM

GCCGGAUAAGUGAGGAUAUACCUAUGGAUACAUAGGUAGAAGGCACAUGAGGAUCACCCAUGUUCCUCUCCGGC [JL-BMX4-4.17 Eli mod] (Eterna round: R97, puzzle: Brourd's mod of Exclusion 4)
apparent KD of MS2 coat protein (input ligand: FMN 200 uM): 406 nM
apparent KD of MS2 coat protein (input ligand: none): 30.3 nM

GCCUCACUUGAGGAUCACCCAAGUCAGGAUAUCUACAGGCCGGCCAUACCAGCCUGCAAGAGAAGGGACUCUAA [Isriqu] (Eterna round: R97, puzzle: Exclusion 1)
apparent KD of MS2 coat protein (input ligand: FMN 200 uM): 245 nM
apparent KD of MS2 coat protein (input ligand: none): 32.3 nM

GCCUGUGAAGGAUAUACAUGAGGAUCACCCAUGUGGCGGAUAUACCCGCCGAGACCGUGUAGAAGGUCAUAGUA [Xezauser] (puzzle: Exclusion 3)
apparent KD of MS2 coat protein [2]: 36.1 nM

GCCUUAUGAGUCAGGAUAUACAAUAAAAUAAUUAAGUAGAAGGGACAUGAGGAUCACCCAUGUACAUUACAUUG [alecazam28] (Eterna round: R97, puzzle: Brourd's mod of Exclusion 4)
apparent KD of MS2 coat protein (input ligand: FMN 200 uM): 82.4 nM
apparent KD of MS2 coat protein (input ligand: none): 21.6 nM

GCGAAAGCAAGCAGGUGAAACAUGAGGAUCACCCAUGUCCUCAUUUGCUCGUCUUAUAAGCUAUGCGAAAGCAUAGC [Sensor 3, v1 - 3] (puzzle: Sensor v3, turn-off variant 1)
apparent KD of MS2 coat protein [1]: 13.7 nM
apparent KD of MS2 coat protein [2]: 113 nM
apparent KD of MS2 coat protein [3]: 12.5 nM

GCGCAGCUGGUAGGAUAUUACAGACAGGACUCACGUAAGGGAGCCUGACAUGAGGAUCACCCAUGUAAGAAGGGCCGUGGUAUC [Eternabot solution 11] (Eterna round: R96, puzzle: Exclusion NG 2)
apparent KD of MS2 coat protein (input ligand: FMN 200 uM): 34.5 nM
apparent KD of MS2 coat protein [4]: 19.8 nM
apparent KD of MS2 coat protein (input ligand: none): 22.5 nM

GCGCCAUCGUGAGAUGGCGUAACGACAUGAGGAUCACCCAUGUAGGAUAUCGAUUGCUUUGCAGUCGAGAAGGGCAAGGUAAGU [JL ENG3 3.83] (Eterna round: R96, puzzle: Exclusion NG 3)
apparent KD of MS2 coat protein [4]: 24.3 nM

GCGCCAUCGUGAGAUGGCGUAUUUACAUGAGGAUCACCCAUGUAGGAUAUCGAUUGCUUUGCAGUCGAGAAGGGCAUGAUAAGU [JL ENG3 3.78] (Eterna round: R96, puzzle: Exclusion NG 3)
apparent KD of MS2 coat protein (input ligand: FMN 200 uM): 72.5 nM
apparent KD of MS2 coat protein [4]: 37.3 nM
apparent KD of MS2 coat protein (input ligand: none): 54.5 nM

GCGCCAUCGUGAGAUGGCGUUUCGACAUGAGGAUCACCCAUGUAGGAUAUCGAUUGCUUUGCAGUCGAGAAGGGCGUGAUAAGU [JL ENG3 3.72] (Eterna round: R96, puzzle: Exclusion NG 3)
apparent KD of MS2 coat protein (input ligand: FMN 200 uM): 104 nM
apparent KD of MS2 coat protein [4]: 74.4 nM
apparent KD of MS2 coat protein (input ligand: none): 98.2 nM
